Measurements reported in PMC4888247.
Values joined by “and” are separate entries in the source; they are usually repeats but may differ in a detail not shown here. Equal values may be shown once.

Experiments:
human S100A8 (human) [1] = biological target: human S100A8 (human) (UniProt P05109); experiment: crystal structure; crystal form 1, P212121, 2.2 A; Zn2+/Ca2+-bound (3 mM ZnCl2 added); 0.2 M ammonium acetate, 0.1 M Na acetate pH 4.0, 15 % PEG 3350, 0.4 % 2,2,2-trifluoroethanol; eight molecules per asymmetric unit
human S100A8 (human) [2] = biological target: human S100A8 (human) (UniProt P05109); experiment: crystal structure; crystal form 2, C2221, 2.1 A; Zn2+/Ca2+-bound with a (Zn)2-cacodylate complex; 5 mM ZnCl2, 0.1 M Na cacodylate pH 6.5, 8 % PEG 8000; four molecules per asymmetric unit
human S100A8 (human) [3] = biological target: human S100A8 (human) (UniProt P05109); experiment: SEC; 24 ml Superdex 75, 20 mM HEPES pH 7.5, 200 mM NaCl, 5 mM CaCl2 (calcium only, no zinc); sizes from a calibration curve with protein standards

## human S100A8 (from UniProt P05109 2-93) (natural protein)
Human S100A8 (human) [1]
  stoichiometry N: 4
Human S100A8 (human) [2]
  stoichiometry N: 4
Human S100A8 (human) [3]
  stoichiometry N: 4 and 2
